This passage reports Kd and Competitive ability % results from EP3381935A1 (Tigo GmbH, dated 2018).

Assay [1] deals with T1, recombinant hIFN-γ receptor (the extracellular part of the IFNGR1) (human, UniProt P15260 18-245).
T1 construct: extracellular domain; In solution for ITC; also called soluble (extracellular) part of the hIFN-γ receptor IFNGR1; interferon-gamma receptor
T1 sequence (looked up): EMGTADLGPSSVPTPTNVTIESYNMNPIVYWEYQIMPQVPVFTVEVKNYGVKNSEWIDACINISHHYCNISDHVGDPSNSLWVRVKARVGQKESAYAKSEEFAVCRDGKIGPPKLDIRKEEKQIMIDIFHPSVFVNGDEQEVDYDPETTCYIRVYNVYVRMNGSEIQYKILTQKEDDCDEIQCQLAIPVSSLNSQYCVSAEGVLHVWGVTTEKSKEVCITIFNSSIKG
Briefly: ITC, IFNGR1 in the cell titrated with ligand, 20°C.

The target in assay [2] is T2, hIFN-γ receptor on human amniotic WISH cells (human, UniProt P15260 18-489).
T2 sequence (looked up): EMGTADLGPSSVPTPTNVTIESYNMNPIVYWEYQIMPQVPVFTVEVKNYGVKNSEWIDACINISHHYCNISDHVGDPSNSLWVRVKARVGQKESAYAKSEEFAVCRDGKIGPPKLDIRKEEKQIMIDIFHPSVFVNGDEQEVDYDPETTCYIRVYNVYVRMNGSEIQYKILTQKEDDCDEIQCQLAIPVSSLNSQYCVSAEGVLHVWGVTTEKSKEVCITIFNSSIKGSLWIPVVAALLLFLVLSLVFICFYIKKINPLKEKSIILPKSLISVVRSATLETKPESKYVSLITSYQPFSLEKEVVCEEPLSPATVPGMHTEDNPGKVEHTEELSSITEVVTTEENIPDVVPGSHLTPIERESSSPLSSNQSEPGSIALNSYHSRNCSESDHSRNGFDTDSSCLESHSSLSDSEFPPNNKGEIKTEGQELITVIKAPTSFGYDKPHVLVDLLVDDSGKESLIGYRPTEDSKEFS
Briefly: cell-based or functional assay.

B1: K88Q (138 aa) (ligand, human, UniProt P01579 24-161, looked up)
chain: QDPYVKEAENLKKYFNAGHSDVADNGTLFLGILKNWKEESDRKIMQSQIVSFYFKLFKNFKDDQSIQKSVETIKEDMNVKFFNSNKKQRDDFEKLTNYSVTDLNVQRKAIHELIQVMAELSPAAKTGKRKRSQMLFRG
notes: range 1-138; also called Control 3: K88Q(138 aa); Control 2: K88Q
Consider B1, for which, in assay [1], the dissociation constant (Kd) is 18.9 nM. The molecule also had a Competitive ability % in assay [2] of 25%.

B2: anti-gamma mutant protein K88Q_D41N (138 aa) (ligand)
chain: QDPYVKEAENLKKYFNAGHSDVADNGTLFLGILKNWKEESNRKIMQSQIVSFYFKLFKNFKDDQSIQKSVETIKEDMNVKFFNSNKKQRDDFEKLTNYSVTDLNVQRKAIHELIQVMAELSPAAKTGKRKRSQMLFRG
The molecule B2 gave a Competitive ability % in assay [2] of 30%.

B3: anti-gamma mutant protein K88Q_T27Y (138 aa) (ligand)
chain: QDPYVKEAENLKKYFNAGHSDVADNGYLFLGILKNWKEESDRKIMQSQIVSFYFKLFKNFKDDQSIQKSVETIKEDMNVKFFNSNKKQRDDFEKLTNYSVTDLNVQRKAIHELIQVMAELSPAAKTGKRKRSQMLFRG
notes: Expressed in E. coli as a HIS-SUMO fusion and the tag was cleaved off; Positions count on the mature 143 aa hIFN-γ
Regarding B3, in assay [1], the Kd came to 28.2 nM. The Competitive ability % in assay [2] came to 35%.

B4: reference hIFN-γ (143 aa) (ligand, human, UniProt P01579 24-161, looked up)
chain: QDPYVKEAENLKKYFNAGHSDVADNGTLFLGILKNWKEESDRKIMQSQIVSFYFKLFKNFKDDQSIQKSVETIKEDMNVKFFNSNKKKRDDFEKLTNYSVTDLNVQRKAIHELIQVMAELSPAAKTGKRKRSQMLFRG
notes: mature; also called standard hIFN-γ; wild type hIFN-γ
As to B4, the Kd in assay [1] was 136 nM.
